Series [1] has as its target T1, GST tagged vinculin tail domain (GST-Vt; residues 879–1,066) (human, UniProt P18206-2 879-1066).
T1 construct: human vinculin tail domain, residues 879-1,066 of vinculin (1,066-residue isoform), cloned in pGEX-4T-1; source: E. coli BL21-DE3, purified (GSTrap FF, Superdex 75)
T1 sequence (looked up): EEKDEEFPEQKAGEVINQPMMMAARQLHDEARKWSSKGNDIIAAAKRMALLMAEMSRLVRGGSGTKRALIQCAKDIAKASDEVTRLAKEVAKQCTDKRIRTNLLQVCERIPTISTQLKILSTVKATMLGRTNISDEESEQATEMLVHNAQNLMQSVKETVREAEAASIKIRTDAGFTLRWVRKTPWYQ
Put plainly: pull-down; GST-Vt on GST-Sepharose beads, with or without PIP2; tail domains (MVt, MVt-ΔH1) or Vh2–Vh3 as negative control; SDS-PAGE and Western blot with HRP-conjugated αHis or αGST antibodies. The following applies: both partners purified. On the technique in general: In western blotting, separated proteins are transferred to a membrane and probed.

The target of series [2] is T2, head domain of vinculin (VH; residues 1–843) (human, UniProt P18206 1-843).
T2 construct: human vinculin head domain, residues 1-843 (the same in vinculin and metavinculin)
T2 sequence (looked up): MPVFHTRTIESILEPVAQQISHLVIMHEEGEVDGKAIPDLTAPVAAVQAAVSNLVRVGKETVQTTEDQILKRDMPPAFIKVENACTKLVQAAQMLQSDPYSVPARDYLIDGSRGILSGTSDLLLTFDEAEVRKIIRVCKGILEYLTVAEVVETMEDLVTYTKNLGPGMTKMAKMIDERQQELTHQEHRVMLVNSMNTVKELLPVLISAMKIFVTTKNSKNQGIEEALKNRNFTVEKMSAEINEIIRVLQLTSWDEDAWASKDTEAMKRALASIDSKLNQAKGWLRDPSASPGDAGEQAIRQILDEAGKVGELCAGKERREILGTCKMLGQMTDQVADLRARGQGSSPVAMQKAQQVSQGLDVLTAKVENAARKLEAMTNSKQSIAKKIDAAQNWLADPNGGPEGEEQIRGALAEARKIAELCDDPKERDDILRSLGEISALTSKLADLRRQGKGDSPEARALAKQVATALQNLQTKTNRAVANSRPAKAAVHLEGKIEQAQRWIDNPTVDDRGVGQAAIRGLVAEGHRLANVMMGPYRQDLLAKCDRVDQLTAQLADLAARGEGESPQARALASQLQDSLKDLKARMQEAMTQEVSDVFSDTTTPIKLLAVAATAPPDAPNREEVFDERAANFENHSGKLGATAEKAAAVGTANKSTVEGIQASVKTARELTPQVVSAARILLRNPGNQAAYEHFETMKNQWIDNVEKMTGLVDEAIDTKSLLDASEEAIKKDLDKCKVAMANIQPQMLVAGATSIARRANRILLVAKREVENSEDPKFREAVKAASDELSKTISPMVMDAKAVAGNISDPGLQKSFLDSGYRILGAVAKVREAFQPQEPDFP
Put plainly: native gel or EMSA; reciprocal tail displacement: competing tail domains titrated into preformed VH:tail complexes at 2- and 10-fold molar excess; details in Methods S1. The following applies: both partners purified.

Series [3] deals with the molecule itself. Put plainly: SEC; Hiload 26/60 Superdex 200 calibrated with molecular weight markers; without PIP2. A general note: SEC sorts molecules by how far they enter the pores of the column.

Changes are numbered by the printed parent chain. Names may count otherwise.

What is called stoichiometry N is a count of units in the complex or per binding partner.

B1: MVt-ΔH1 (residues 959–1,130) as detected by His-tag Western blot in the GST-Vt pull-down (domain or fragment, human, UniProt P18206 959-1130, looked up)
chain: NQPVNQPILAAAQSLHREATKWSSKGNDIIAAAKRMALLMAEMSRLVRGGSGTKRALIQCAKDIAKASDEVTRLAKEVAKQCTDKRIRTNLLQVCERIPTISTQLKILSTVKATMLGRTNISDEESEQATEMLVHNAQNLMQSVKETVREAEAASIKIRTDAGFTLRWVRKT
notes: human metavinculin (1,134 residues), residues 959-1,130; Same construct as m3; source: E. coli, auto-induction media, purified; not shown: His8, N-terminal, kept
For B1, in series [1], the binding result is “binds”.

B2: MVt-ΔH1 (residues 959–1,130) (domain or fragment, human, UniProt P18206 959-1130, looked up)
chain: B1 chain
notes: human metavinculin (1,134 residues), residues 959-1,130 (five-helix bundle H1′, H2-H5); The His-detected form of the pull-down is m17; also called MVt five-helix bundle (α-helices H1′, H2–H5); not shown: His8, N-terminal, cleaved
For B2, in series [2], the binding result was “binds”.

B3: metavinculin tail domain (MVt; residues 879–1,134) (domain or fragment, human, UniProt P18206 879-1134, looked up)
chain: EEKDEEFPEQKAGEVINQPMMMAARQLHDEARKWSSKPGIPAAEVGIGVVAEADAADAAGFPVPPDMEDDYEPELLLMPSNQPVNQPILAAAQSLHREATKWSSKGNDIIAAAKRMALLMAEMSRLVRGGSGTKRALIQCAKDIAKASDEVTRLAKEVAKQCTDKRIRTNLLQVCERIPTISTQLKILSTVKATMLGRTNISDEESEQATEMLVHNAQNLMQSVKETVREAEAASIKIRTDAGFTLRWVRKTPWYQ
notes: human metavinculin (1,134 residues) tail domain, residues 879-1,134; Tag-cleaved form as told in the purification methods; the His-detected form of the pull-down is m16; not shown: His6, N-terminal, cleaved
Take B3: the binding result in series [2] was “binds”.

B4: MVt-R975W (residues 879–1134) (domain or fragment, human, UniProt P18206 879-1134, looked up)
chain: B3 chain with R97W
notes: human metavinculin tail domain, residues 879-1,134, with the cardiomyopathy-associated mutation Arg975Trp; also called MVt-Arg975Trp; not shown: His6, N-terminal, cleaved
Regarding B4, the binding result in series [2] is recorded as “binds”.

B5: metavinculin-ΔH1′ (lacking residues 963–983) (natural protein, human, UniProt P18206 1-1134, looked up)
chain: MPVFHTRTIESILEPVAQQISHLVIMHEEGEVDGKAIPDLTAPVAAVQAAVSNLVRVGKETVQTTEDQILKRDMPPAFIKVENACTKLVQAAQMLQSDPYSVPARDYLIDGSRGILSGTSDLLLTFDEAEVRKIIRVCKGILEYLTVAEVVETMEDLVTYTKNLGPGMTKMAKMIDERQQELTHQEHRVMLVNSMNTVKELLPVLISAMKIFVTTKNSKNQGIEEALKNRNFTVEKMSAEINEIIRVLQLTSWDEDAWASKDTEAMKRALASIDSKLNQAKGWLRDPSASPGDAGEQAIRQILDEAGKVGELCAGKERREILGTCKMLGQMTDQVADLRARGQGSSPVAMQKAQQVSQGLDVLTAKVENAARKLEAMTNSKQSIAKKIDAAQNWLADPNGGPEGEEQIRGALAEARKIAELCDDPKERDDILRSLGEISALTSKLADLRRQGKGDSPEARALAKQVATALQNLQTKTNRAVANSRPAKAAVHLEGKIEQAQRWIDNPTVDDRGVGQAAIRGLVAEGHRLANVMMGPYRQDLLAKCDRVDQLTAQLADLAARGEGESPQARALASQLQDSLKDLKARMQEAMTQEVSDVFSDTTTPIKLLAVAATAPPDAPNREEVFDERAANFENHSGKLGATAEKAAAVGTANKSTVEGIQASVKTARELTPQVVSAARILLRNPGNQAAYEHFETMKNQWIDNVEKMTGLVDEAIDTKSLLDASEEAIKKDLDKCKVAMANIQPQMLVAGATSIARRANRILLVAKREVENSEDPKFREAVKAASDELSKTISPMVMDAKAVAGNISDPGLQKSFLDSGYRILGAVAKVREAFQPQEPDFPPPPPDLEQLRLTDELAPPKPPLPEGEVPPPRPPPPEEKDEEFPEQKAGEVINQPMMMAARQLHDEARKWSSKPGIPAAEVGIGVVAEADAADAAGFPVPPDMEDDYEPELLLMPSNQPVGNDIIAAAKRMALLMAEMSRLVRGGSGTKRALIQCAKDIAKASDEVTRLAKEVAKQCTDKRIRTNLLQVCERIPTISTQLKILSTVKATMLGRTNISDEESEQATEMLVHNAQNLMQSVKETVREAEAASIKIRTDAGFTLRWVRKTPWYQ
notes: human metavinculin, full length (1-1,134) lacking residues 963-983 (α-helix H1′): 1-962 joined to 984-1,134; also called MV-ΔH1′; source: E. coli BL21-DE3, purified (as full-length metavinculin); not shown: His8, N-terminal, kept
As for B5, the “stoichiometry N” value in series [3] worked out at 2.

B6: metavinculin-ΔH1ΔH1′ (lacking residues 895–915 and 963–983) (natural protein, human, UniProt P18206 1-1134, looked up)
chain: MPVFHTRTIESILEPVAQQISHLVIMHEEGEVDGKAIPDLTAPVAAVQAAVSNLVRVGKETVQTTEDQILKRDMPPAFIKVENACTKLVQAAQMLQSDPYSVPARDYLIDGSRGILSGTSDLLLTFDEAEVRKIIRVCKGILEYLTVAEVVETMEDLVTYTKNLGPGMTKMAKMIDERQQELTHQEHRVMLVNSMNTVKELLPVLISAMKIFVTTKNSKNQGIEEALKNRNFTVEKMSAEINEIIRVLQLTSWDEDAWASKDTEAMKRALASIDSKLNQAKGWLRDPSASPGDAGEQAIRQILDEAGKVGELCAGKERREILGTCKMLGQMTDQVADLRARGQGSSPVAMQKAQQVSQGLDVLTAKVENAARKLEAMTNSKQSIAKKIDAAQNWLADPNGGPEGEEQIRGALAEARKIAELCDDPKERDDILRSLGEISALTSKLADLRRQGKGDSPEARALAKQVATALQNLQTKTNRAVANSRPAKAAVHLEGKIEQAQRWIDNPTVDDRGVGQAAIRGLVAEGHRLANVMMGPYRQDLLAKCDRVDQLTAQLADLAARGEGESPQARALASQLQDSLKDLKARMQEAMTQEVSDVFSDTTTPIKLLAVAATAPPDAPNREEVFDERAANFENHSGKLGATAEKAAAVGTANKSTVEGIQASVKTARELTPQVVSAARILLRNPGNQAAYEHFETMKNQWIDNVEKMTGLVDEAIDTKSLLDASEEAIKKDLDKCKVAMANIQPQMLVAGATSIARRANRILLVAKREVENSEDPKFREAVKAASDELSKTISPMVMDAKAVAGNISDPGLQKSFLDSGYRILGAVAKVREAFQPQEPDFPPPPPDLEQLRLTDELAPPKPPLPEGEVPPPRPPPPEEKDEEFPEQKAGEVIPGIPAAEVGIGVVAEADAADAAGFPVPPDMEDDYEPELLLMPSNQPVGNDIIAAAKRMALLMAEMSRLVRGGSGTKRALIQCAKDIAKASDEVTRLAKEVAKQCTDKRIRTNLLQVCERIPTISTQLKILSTVKATMLGRTNISDEESEQATEMLVHNAQNLMQSVKETVREAEAASIKIRTDAGFTLRWVRKTPWYQ
notes: human metavinculin, full length (1-1,134) lacking residues 895-915 (H1) and 963-983 (H1′); source: E. coli BL21-DE3, purified (as full-length metavinculin); not shown: His8, N-terminal, kept
For B6, the “stoichiometry N” value in series [3] turned out to be 2.

Values taken from paper PMC2873289, “A Helix Replacement Mechanism Directs Metavinculin Functions” (PLoS ONE, 2010).
